# Measurements: US20200000897A1 (published 2020)
# Target: T1, HLA-A*03:01 (human)
# T1 construct: MHC class I monomer first loaded with a UV-sensitive peptide that is cleaved by UV irradiation and exchanged for the test peptide; captured on streptavidin plates; also called peptide-receptive MHC molecules
# Experiment: UV-ligand exchange, anti-b2m ELISA; peptide exchange yield grade (>10% +, >20% ++, >50% +++, >75% ++++)
# Method in brief: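 HLA-A*03:01 complexes were formed by UV-induced exchange of a photocleavable peptide for the test peptide. Exchange yield was measured by ELISA: streptavidin capture of 100-fold diluted monomers, HRP-anti-β2m detection, TMB read at 450 nm, quantified against HLA-A*02:01 monomer standards (15–500 ng/ml) and graded by % yield.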
row,Binder,peptide exchange yield [%]
1,RAVSVNPGK,10 to 20
2,HMDEFKRTQK,50 to 75
3,FLGLAFHPK,20 to 50
4,PLPRPGAVLK,20 to 50
5,GMTLLCEALK,20 to 50

# Results, then the binder that gave them:
row,peptide exchange yield [%],Binder
1,> 75,RLLQHTPSAR
2,> 75,RVRALGSQY
3,50 to 75,TTNARILAR
4,> 75,RTYTCQVTY
5,20 to 50,VSVAGSILAK
6,50 to 75,SVEGLSRRLK
